Measured values: the MegaScale stability set (Tsuboyama et al. 2023)

B1: 2M8U (parent)
chain: TKAQVIEAFKVFDRDGNGYVTVDYLRKVLNELGDMMPADEIEEMIYEADPQNSGYVQYETFVGMLFL

Variants of: B1
Assay: folding stability dG (cDNA display proteolysis); higher = more stable
Conditions: PBS, room temperature
With TKAQVIEAFKVEDRDGNGYVTVDYLRKVLNELGDMMPADEIEEMIYEADPQNSGYVQYETFVGMLFL the “folding stability dG” value was 3.15 kcal/mol.
For TKAQVIEAFKVGDRDGNGYVTVDYLRKVLNELGDMMPADEIEEMIYEADPQNSGYVQYETFVGMLFL, the “folding stability dG” value was 3.5 kcal/mol.
In the case of TKAQVIEAFKVHDRDGNGYVTVDYLRKVLNELGDMMPADEIEEMIYEADPQNSGYVQYETFVGMLFL, the “folding stability dG” value is reported as 3.24 kcal/mol.
With TKAQVIEAFKVIDRDGNGYVTVDYLRKVLNELGDMMPADEIEEMIYEADPQNSGYVQYETFVGMLFL the “folding stability dG” value was 3.04 kcal/mol.
For TKAQVIEAFKVKDRDGNGYVTVDYLRKVLNELGDMMPADEIEEMIYEADPQNSGYVQYETFVGMLFL, the “folding stability dG” value was 2.54 kcal/mol.
In the case of TKAQVIEAFKVLDRDGNGYVTVDYLRKVLNELGDMMPADEIEEMIYEADPQNSGYVQYETFVGMLFL, the “folding stability dG” value is reported as 3.08 kcal/mol.
For TKAQVIEAFKVMDRDGNGYVTVDYLRKVLNELGDMMPADEIEEMIYEADPQNSGYVQYETFVGMLFL, the “folding stability dG” value was 3.33 kcal/mol.
In the case of TKAQVIEAFKVNDRDGNGYVTVDYLRKVLNELGDMMPADEIEEMIYEADPQNSGYVQYETFVGMLFL, the “folding stability dG” value is reported as 3.06 kcal/mol.
With TKAQVIEAFKVPDRDGNGYVTVDYLRKVLNELGDMMPADEIEEMIYEADPQNSGYVQYETFVGMLFL the “folding stability dG” value was 1.89 kcal/mol.
For TKAQVIEAFKVQDRDGNGYVTVDYLRKVLNELGDMMPADEIEEMIYEADPQNSGYVQYETFVGMLFL, the “folding stability dG” value was 3.12 kcal/mol.
For TKAQVIEAFKVRDRDGNGYVTVDYLRKVLNELGDMMPADEIEEMIYEADPQNSGYVQYETFVGMLFL, the “folding stability dG” value was 2.48 kcal/mol.
For TKAQVIEAFKVSDRDGNGYVTVDYLRKVLNELGDMMPADEIEEMIYEADPQNSGYVQYETFVGMLFL, the “folding stability dG” value was 2.68 kcal/mol.
In the case of TKAQVIEAFKVTDRDGNGYVTVDYLRKVLNELGDMMPADEIEEMIYEADPQNSGYVQYETFVGMLFL, the “folding stability dG” value is reported as 2.39 kcal/mol.
With TKAQVIEAFKVVDRDGNGYVTVDYLRKVLNELGDMMPADEIEEMIYEADPQNSGYVQYETFVGMLFL the “folding stability dG” value was 3.03 kcal/mol.
In the case of TKAQVIEAFKVWDRDGNGYVTVDYLRKVLNELGDMMPADEIEEMIYEADPQNSGYVQYETFVGMLFL, the “folding stability dG” value is reported as 3.32 kcal/mol.
For TKAQVIEAFKVYDRDGNGYVTVDYLRKVLNELGDMMPADEIEEMIYEADPQNSGYVQYETFVGMLFL, the “folding stability dG” value was 3.71 kcal/mol.
For TKAQVIEAFKVFARDGNGYVTVDYLRKVLNELGDMMPADEIEEMIYEADPQNSGYVQYETFVGMLFL, the “folding stability dG” value was 1.97 kcal/mol.
For TKAQVIEAFKVFCRDGNGYVTVDYLRKVLNELGDMMPADEIEEMIYEADPQNSGYVQYETFVGMLFL, the “folding stability dG” value was 3.16 kcal/mol.
In the case of TKAQVIEAFKVFERDGNGYVTVDYLRKVLNELGDMMPADEIEEMIYEADPQNSGYVQYETFVGMLFL, the “folding stability dG” value is reported as 2.11 kcal/mol.
In the case of TKAQVIEAFKVFFRDGNGYVTVDYLRKVLNELGDMMPADEIEEMIYEADPQNSGYVQYETFVGMLFL, the “folding stability dG” value is reported as 2.65 kcal/mol.
With TKAQVIEAFKVFGRDGNGYVTVDYLRKVLNELGDMMPADEIEEMIYEADPQNSGYVQYETFVGMLFL the “folding stability dG” value was 1.79 kcal/mol.
In the case of TKAQVIEAFKVFHRDGNGYVTVDYLRKVLNELGDMMPADEIEEMIYEADPQNSGYVQYETFVGMLFL, the “folding stability dG” value is reported as 1.95 kcal/mol.
In the case of TKAQVIEAFKVFIRDGNGYVTVDYLRKVLNELGDMMPADEIEEMIYEADPQNSGYVQYETFVGMLFL, the “folding stability dG” value is reported as 2.4 kcal/mol.
In the case of TKAQVIEAFKVFKRDGNGYVTVDYLRKVLNELGDMMPADEIEEMIYEADPQNSGYVQYETFVGMLFL, the “folding stability dG” value is reported as 1.39 kcal/mol.
In the case of TKAQVIEAFKVFLRDGNGYVTVDYLRKVLNELGDMMPADEIEEMIYEADPQNSGYVQYETFVGMLFL, the “folding stability dG” value is reported as 2.6 kcal/mol.
With TKAQVIEAFKVFMRDGNGYVTVDYLRKVLNELGDMMPADEIEEMIYEADPQNSGYVQYETFVGMLFL the “folding stability dG” value was 2.39 kcal/mol.
In the case of TKAQVIEAFKVFNRDGNGYVTVDYLRKVLNELGDMMPADEIEEMIYEADPQNSGYVQYETFVGMLFL, the “folding stability dG” value is reported as 1.76 kcal/mol.
For TKAQVIEAFKVFPRDGNGYVTVDYLRKVLNELGDMMPADEIEEMIYEADPQNSGYVQYETFVGMLFL, the “folding stability dG” value was 1.49 kcal/mol.
With TKAQVIEAFKVFQRDGNGYVTVDYLRKVLNELGDMMPADEIEEMIYEADPQNSGYVQYETFVGMLFL the “folding stability dG” value was 1.87 kcal/mol.
For TKAQVIEAFKVFRRDGNGYVTVDYLRKVLNELGDMMPADEIEEMIYEADPQNSGYVQYETFVGMLFL, the “folding stability dG” value was 1.21 kcal/mol.
With TKAQVIEAFKVFSRDGNGYVTVDYLRKVLNELGDMMPADEIEEMIYEADPQNSGYVQYETFVGMLFL the “folding stability dG” value was 1.57 kcal/mol.
In the case of TKAQVIEAFKVFTRDGNGYVTVDYLRKVLNELGDMMPADEIEEMIYEADPQNSGYVQYETFVGMLFL, the “folding stability dG” value is reported as 2.06 kcal/mol.
In the case of TKAQVIEAFKVFVRDGNGYVTVDYLRKVLNELGDMMPADEIEEMIYEADPQNSGYVQYETFVGMLFL, the “folding stability dG” value is reported as 2.3 kcal/mol.
For TKAQVIEAFKVFWRDGNGYVTVDYLRKVLNELGDMMPADEIEEMIYEADPQNSGYVQYETFVGMLFL, the “folding stability dG” value was 2.7 kcal/mol.
With TKAQVIEAFKVFYRDGNGYVTVDYLRKVLNELGDMMPADEIEEMIYEADPQNSGYVQYETFVGMLFL the “folding stability dG” value was 2.29 kcal/mol.
With TKAQVIEAFKVFDADGNGYVTVDYLRKVLNELGDMMPADEIEEMIYEADPQNSGYVQYETFVGMLFL the “folding stability dG” value was 3.65 kcal/mol.
In the case of TKAQVIEAFKVFDCDGNGYVTVDYLRKVLNELGDMMPADEIEEMIYEADPQNSGYVQYETFVGMLFL, the “folding stability dG” value is reported as 3.42 kcal/mol.
With TKAQVIEAFKVFDDDGNGYVTVDYLRKVLNELGDMMPADEIEEMIYEADPQNSGYVQYETFVGMLFL the “folding stability dG” value was 3.5 kcal/mol.
With TKAQVIEAFKVFDEDGNGYVTVDYLRKVLNELGDMMPADEIEEMIYEADPQNSGYVQYETFVGMLFL the “folding stability dG” value was 3.62 kcal/mol.
With TKAQVIEAFKVFDFDGNGYVTVDYLRKVLNELGDMMPADEIEEMIYEADPQNSGYVQYETFVGMLFL the “folding stability dG” value was 4.03 kcal/mol.
